The results in this text go back to US20220411536A1 (NUMAB THERAPEUTICS, published 2022).

Experiment [1] has as its target T1, Fc-tagged human PD-L1 extracellular domain (SinoBiological, cat. 10084-H02H) (human, UniProt Q9NZQ7 19-238).
T1 construct: extracellular domain; also called hPD-L1; not shown: Fc tag of the bought protein
Nature of the experiment: SPR. (Surface plasmon resonance follows binding to a sensor surface in real time, without labels.)

Experiment [2] has as its target T1, Fc-tagged human PD-L1 extracellular …. In words: SPR, captured Fc-PD-L1 ECD, scFv analyte, kinetic.
The target is the same in experiment [3]. In words: SPR, captured Fc-PD-L1 ECD, scFv analyte, steady state.
Experiment [4] has as its target T2, CD3e on Jurkat PD-1 NFAT reporter T cells or on T cells of human PBMCs (human, UniProt P07766 23-207). In words: cell-based or functional assay.
Experiment [5] concerns the target T2, CD3e on Jurkat PD-1 NFAT reporter T …. Nature of the experiment: cell-based or functional assay. The source holds these as a separate data set.
Experiment [6] has the same target. In words: cell-based or functional assay. The source holds these as a separate data set.
Experiment [7] concerns the target T3, recombinant human IL-23R (custom-made by Trenzyme) (human, UniProt Q5VWK5 24-355).
T3 sequence (looked up): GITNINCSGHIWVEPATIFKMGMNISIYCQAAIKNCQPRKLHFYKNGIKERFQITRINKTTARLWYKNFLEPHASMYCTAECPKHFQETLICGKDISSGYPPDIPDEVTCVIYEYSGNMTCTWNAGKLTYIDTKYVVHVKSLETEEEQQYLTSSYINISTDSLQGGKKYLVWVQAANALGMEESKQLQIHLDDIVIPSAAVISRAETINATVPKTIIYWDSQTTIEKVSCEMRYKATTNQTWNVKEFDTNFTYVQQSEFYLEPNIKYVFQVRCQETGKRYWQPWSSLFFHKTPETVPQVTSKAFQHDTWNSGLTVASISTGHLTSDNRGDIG
In words: SPR, immobilised IL-23R.

Experiment [8] deals with T4, recombinant human Her2 ECD (SinoBiological, cat. 10004-HCCH) (human, UniProt P04626 23-652).
T4 construct: extracellular domain; bought protein
In words: SPR, immobilised Her2 ECD.

For experiment [9], the target named is T5, human HER2 expressed on cells (SK-OV3, MCF-7, HCC1954, HCC827) (human, UniProt P04626 23-1255).
T5 construct: whole, on cells
In words: flow cytometry, MCF-7 cells.

Another experiment concerns the target T6, human serum albumin (human, UniProt P02768 25-609).
T6 construct: also called HSA; human SA
In words: SPR, immobilised HSA, pH 5.5.

The target of a further experiment is T7, mouse serum albumin (mouse, UniProt P07724 25-608).
T7 construct: also called MSA; mouse SA
In words: SPR, immobilised MSA, pH 5.5.

Experiment [10] has as its target T5, human HER2 expressed on cells (SK-OV3, …). In words: flow cytometry, SK-OV3 cells.
The target of experiment [11] is T1, Fc-tagged human PD-L1 extracellular …. In words: SPR, captured Fc-PD-L1 ECD, kinetic.
For experiment [12] the target is unchanged. Nature of the experiment: SPR, captured Fc-PD-L1 ECD, steady state.
Experiment [13] addresses T8, recombinant human CD3E ECD (SinoBiological, cat. 10977-H08H) (human, UniProt P07766 23-126).
T8 construct: extracellular domain; bought protein; also called CD3s
Nature of the experiment: SPR, immobilised CD3e ECD, two-state model.

Experiment [14] deals with T5, human HER2 expressed on cells (SK-OV3, …). In words: flow cytometry, SK-OV3 cells, no competitor. On the technique in general: In flow cytometry, cells or beads pass a laser one at a time.
Experiment [15] shares this target. Nature of the experiment: flow cytometry, IFNy-stimulated HCC827 cells.
For experiment [16] the target is unchanged. In words: flow cytometry, IFNy-stimulated HCC1954 cells.
For experiment [17], the target named is T8, recombinant human CD3E ECD …. Nature of the experiment: SPR, immobilised CD3e ECD, two-state model (ka1).
Experiment [18] shares this target. In words: SPR, immobilised CD3e ECD, two-state model (kd1).
The target of experiment [19] is T5, human HER2 expressed on cells (SK-OV3, …). Nature of the experiment: flow cytometry, SK-OV3 cells, competitor 50 nM pertuzumab.
Experiment [20] deals with T9, human PD-L1 expressed on cells (CHO-PD-L1, HCC1954, HCC827) (human, UniProt Q9NZQ7 19-290).
T9 construct: whole, on cells; also called hPD-L1; PD-L1 expressing cells
Nature of the experiment: flow cytometry, inhibition of biotinylated PD-1 binding to HCC827 cells.

The target in experiment [21] is T9, human PD-L1 expressed on cells …. In words: flow cytometry, inhibition of biotinylated PD-1 binding to HCC1954 cells.
Experiment [22] concerns the target T1, Fc-tagged human PD-L1 extracellular …. Nature of the experiment: SPR, captured Fc-PD-L1 ECD, kinetic; kinetic analysis; the patent holds the steady state KD (3.47E-07 M) for the valid one.

B1: PRO1434 (scFv, V domains shown)
VH: QVQLQESGPGLVKPSETLSLTCKVSGFSFSSGYDMCWIRQPPGKGLEWIGCVVAGSVDITYYASWAKGRVTISVDSSKNQFSLKLSSVTAADTAVYYCARKDAYSDAFNLWGQGTLVTVSS
VL: DIQMTQSPSSLSASVGDRVTITCQASQSINDYLAWYQQKPGKAPKLLIYKASTLASGVPSRFSGSGSGTDFTLTISSLQPEDFATYYCQAAYIITDIDNVFGTGTKVTVLG
notes: also called 33-03-G02 VL-Q108A/G109A
Regarding B1, the “fold reduction of affinity vs PRO830” value in [1] stood at 6500 fold. Moreover, in experiment [2], the Kd – broadly, the constant that tells how readily two partners part at equilibrium – worked out at 492 nM; the koff (commonly the first-order rate constant of dissociation) was found to be 0.535 s⁻¹; the kon (in general, the rate constant with which the complex forms) was determined as 1.09e+06 M⁻¹ s⁻¹. The same molecule had a Kd in experiment [3] of 487 nM.

B2: PRO1543 (multispecific antibody)
chain 1: not shown
chain 2: DIQMTQSPSSLSASVGDRVTITCQASQSINDYLAWYQQKPGKAPKLLIYKASTLASGVPSRFSGSGSGTDFTLTISSLQPEDFATYYCQAAYIITDIDNVFGTGTKVTVLGGGGGSGGGGSGGGGSGGGGSQVQLQESGPGLVKPSETLSLTCKVSGFSFSSGYDMCWIRQPPGKGLEWIGCVVAGSVDITYYASWAKGRVTISVDSSKNQFSLKLSSVTAADTAVYYCARKDAYSDAFNLWGQGTLVTVSSGGGGSGGGGSEVQLVESGGGLVQPGGSLRLSCAASGFSLSSYDMSWVRQAPGKGLAWIGASYASGPTYYASWAKGRFTISRDNSKNTVYLQMNSLRAEDTATYFCARGGWTGTSHSNIWGQGTLVTVSSGGGSGGGSEVQLVESGGGLVQPGGSLRLSCAASGFSFSSSYWICWVRQAPGKCLEWVGCVFTGDGTTYYASWAKGRFTISRDNSKNTVYLQMNSLRAEDTATYFCARPVSVYYYGMDLWGQGTLVTVSS
notes: also called trastuzumab-based MATCH4
As to B2, in experiment [4], the “IC50, NFAT reporter, CHO-PD-L1 (A2 clone) cells” value worked out at 29.2 nM. In experiment [4], the “IC50, NFAT reporter, HCC1954 cells” value stood at 0.402 nM. In addition, the “IC50, NFAT reporter, HCC1954 cells, + nivolumab” value in experiment [4] was 0.125 nM. In experiment [4], the “rel. max. activation vs PRO1497, NFAT reporter, HCC1954 cells” value came out at 102%. Also, in [4], the “rel. max. activation vs PRO1497 on HCC1954, NFAT reporter, CHO-PD-L1 (A2 clone) cells” value was found to be 62%. Besides, in experiment [5], the “T cell activation IC50, PBMC with HCC827 cells” value is 0.136 nM. The “T cell activation IC50, PBMC with HCC1954 cells” value in [5] came out at 0.049 nM. Also, the “target cell killing IC50, 16 h, HCC1954 cells” value in experiment [6] was 0.00023 nM. Further, the “target cell killing IC50, 16 h, MCF-7 cells” value in experiment [6] is 0.00311 nM. Moreover, the binding result in experiment [7] is given as “no binding (tested: 90 nM highest concentration)”. In addition, the Kd turned out to be 0.406 nM in experiment [8]; 0.81 nM with human serum albumin; 19.5 nM with mouse serum albumin; 347 nM in experiment [12]; 15.7 nM in experiment [13]; 20.9 nM in experiment [22]. The koff was determined as 6.26e-05 s⁻¹ in experiment [8]; 0.000118 s⁻¹ with human serum albumin; 0.00117 s⁻¹ with mouse serum albumin; 0.000367 s⁻¹ in [11]; 0.00542 s⁻¹ in experiment [18]. Further, the kon in [8] was found to be 154000 M⁻¹ s⁻¹; in the experiment with human serum albumin, 145000 M⁻¹ s⁻¹; with mouse serum albumin, 60200 M⁻¹ s⁻¹; in experiment [11], 17600 M⁻¹ s⁻¹; in [17], 190000 M⁻¹ s⁻¹. In addition, the 50% effective concentration (EC50) – broadly, the concentration giving half of the maximal effect – in experiment [9] is 28.6 nM; in [10], 3.32 nM; in [14], 4.09 nM; in experiment [15], 3.9 nM; in [16], 27.8 nM; in [19], 4.16 nM. Besides, in experiment [13], the KD1 stood at 28.5 nM. Further, the kd2 in experiment [13] came to 0.00503 s⁻¹. Further, the concentration for half-maximal inhibition (IC50) (usually the midpoint of a concentration-inhibition curve) in experiment [20] was determined as 59.2 µg/mL; in [21], 0.601 µg/mL.
